The record followed here is the supplement of paper PMC9170038.

This data set has as its system K4 kissing-loop RNA reporter. Nature of the data set: apparent KD of K4 kissing-loop reporter; higher = weaker reporter binding. As to conditions: Eterna round: R107. The procedure:
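RNA-MaP round R107: designed RNA switches with theophylline, tryptophan, arginine or FMN aptamers are transcribed on-chip within common flanks. They are titrated with a labelled K4 kissing-loop RNA reporter in RNA-MaP buffer (100 mM Tris pH 7.5, 80 mM KCl, 4 mM MgCl2), without ligand or with the indicated ligand. Median apparent KD per design.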

Setting [1] is: input ligand: theophylline 20 uM.
The mark [2] stands for this setting: input ligand: tryptophan 2.4 mM.
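Also: bound reporter read as fluorescence of individual clusters on recovered sequencing chips by microscopy, with normalized cluster intensities fitted with a binding model.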

Consider “AACCGUGUGGCGGCCGCCACUAGUCUCCAGUGAUGUUGGAGAGACCACGUAAGUGGUCUCCAACAUAGGACCGGGCCAUAUGGAA [Same State - Tryptophan B (Freestyle 26)]”, for which the “apparent KD of K4 kissing-loop reporter” value (input ligand: FMN 200 uM) is 204 nM; the “apparent KD of K4 kissing-loop reporter” value (input ligand: arginine 13.2 mM) was 78.5 nM; the “apparent KD of K4 kissing-loop reporter” value (input ligand: none) amounted to 106 nM; the “apparent KD of K4 kissing-loop reporter” value under setting [1] came out at 132 nM; the “apparent KD of K4 kissing-loop reporter” value under setting [2] was found to be 259 nM.

Turning to “AACCUACGAUCACAAUAGUGAUUGUAGGACUAGGAUAUGCUGAAAAGCAGAAGGAGUGAUGUUCCACUCAUGAAUAACAUGAGAA [FmnAX 4 #OpenEnded #K4Late #CoaxialStacking]”, the “apparent KD of K4 kissing-loop reporter” value runs as follows: (input ligand: FMN 200 uM) 594 nM; (input ligand: arginine 13.2 mM) 340 nM; (input ligand: none) 410 nM; under setting [1], 324 nM; under setting [2], 270 nM.

For “AACGCUGGUGAAUAACACUAGCGAAAUUCGCGAGGACCGGUACGGCCGCCACUCGCUAACUGCGAGUGAUGUUCGAUAAUAAAAU [Mat - Mod of OpenEnded 3 - D7]”, the “apparent KD of K4 kissing-loop reporter” value was 174 nM (input ligand: FMN 200 uM); 125 nM (input ligand: arginine 13.2 mM); 197 nM (input ligand: none); 280 nM under setting [1]; 122 nM under setting [2].

Regarding “AACGUUUUGAGAAGGAGCGCGUUAAGCAGUGAUGUUGCUUUAUUUUAUCAAAUACAUAUAUCGCAGGUAGGUCGCUCAAUACGUA [JR_Nu_SSArginiB_Sub026]”, the “apparent KD of K4 kissing-loop reporter” value was found to be 304 nM (input ligand: FMN 200 uM); 218 nM (input ligand: arginine 13.2 mM); 253 nM (input ligand: none); 283 nM under setting [1]; 230 nM under setting [2].

Turning to “AACGUUUUGUGAAGGAGCGCGAUAAGCAGUGAUGUUGCUUACUUACAAUUUAUAUUUUACACGCAGGUAGGUCGCACAAUACGUA [JR_SSArginiB_Sub017]”, the “apparent KD of K4 kissing-loop reporter” value is, setting by setting: (input ligand: FMN 200 uM) 207 nM; (input ligand: arginine 13.2 mM) 160 nM; (input ligand: none) 190 nM; under setting [1], 163 nM; under setting [2], 173 nM.

Take “AACUGGGUUCGUGAUACCAGCUCACACAUGAGUGAUGUUGAUGUAGUGGGCAAAAUGUGGAGCCCUUGGCAGCACUGUGACCACG [XTheo-B3]”: the “apparent KD of K4 kissing-loop reporter” value stood at 422 nM (input ligand: FMN 200 uM); 358 nM (input ligand: arginine 13.2 mM); 411 nM (input ligand: none); 378 nM under setting [1]; 371 nM under setting [2].

For “AACUGUCAAGGACAACAUUACUGCAGUGAUACCAGCAUCGAAAGAUGCCCUUGGCAGCACUAACUUGCAGUGAUGUUGCAAGUAA [BrourdMod 4 - Jieux - Exclusion - Theophylline A]”, the “apparent KD of K4 kissing-loop reporter” value runs as follows: (input ligand: FMN 200 uM) 313 nM; (input ligand: arginine 13.2 mM) 245 nM; (input ligand: none) 256 nM; under setting [1], 225 nM; under setting [2], 264 nM.

For “AAGCAGUCACUCGAACCCAUCGAAGAUGGGCGAGGACCGGUACGGCCGCCACUCGGAGUGAUGUUCCGCAGACUGCAAAAUAAAA”, the “apparent KD of K4 kissing-loop reporter” value (input ligand: FMN 200 uM) turned out to be 679 nM; the “apparent KD of K4 kissing-loop reporter” value (input ligand: arginine 13.2 mM) was determined as 265 nM; the “apparent KD of K4 kissing-loop reporter” value (input ligand: none) stood at 339 nM; the “apparent KD of K4 kissing-loop reporter” value under setting [1] was 249 nM; the “apparent KD of K4 kissing-loop reporter” value under setting [2] turned out to be 164 nM.

As to “AAGCAGUCACUCGAAGCCAUCGAAGAUGGGCGAGGACCGGUACGGCCGCCACUCGGAGUGAUGUUCCGAAGACUGCAAAAUAAAA”, the “apparent KD of K4 kissing-loop reporter” value (input ligand: FMN 200 uM) turned out to be 512 nM; the “apparent KD of K4 kissing-loop reporter” value (input ligand: arginine 13.2 mM) came to 669 nM; the “apparent KD of K4 kissing-loop reporter” value (input ligand: none) amounted to 498 nM; the “apparent KD of K4 kissing-loop reporter” value under setting [1] was 508 nM; the “apparent KD of K4 kissing-loop reporter” value under setting [2] was determined as 567 nM.

As for “AAGCAGUCAGGAUCGAAGAUCCUGCAAAACCGAGGACCGGUACGGCCGCCACUCGGAGUGAUGUUCCGAAGACUGCAAAAUAAAA [#SwitchBubble 6]”, the “apparent KD of K4 kissing-loop reporter” value worked out at 191 nM (input ligand: FMN 200 uM); 152 nM (input ligand: arginine 13.2 mM); 213 nM (input ligand: none); 150 nM under setting [1]; 64.5 nM under setting [2].

For the sequence “AAGCAUUCUUCGGAAUGCAGACCCGCUGAGGAGGAUAUGACGAAAGUCAGAAGGUUUCAGUGAUGUUGAGGCCUCCUCAAUGGUC [whbob_Ex_FMNA__2th182]”, the “apparent KD of K4 kissing-loop reporter” value runs as follows: (input ligand: FMN 200 uM) 305 nM; (input ligand: arginine 13.2 mM) 256 nM; (input ligand: none) 293 nM; under setting [1], 285 nM; under setting [2], 291 nM.

On to “AAGGGCGAGGUAACGUGGAUAUCUCGUCGCAAGGAUAUCUGGAAACAGAGAAGGUGCGACAUCACCGGCAGUGAUGUUGCUGGGC”, for which the “apparent KD of K4 kissing-loop reporter” value was found to be 298 nM (input ligand: FMN 200 uM); 185 nM (input ligand: arginine 13.2 mM); 233 nM (input ligand: none); 227 nM under setting [1]; 181 nM under setting [2].

Consider “AAGGGCGGAACAACCUCGCCGGAUAGAGAUACCAGCCCAGCAAUGGGCCCUUGGCAGCUCACUGACCUCAGUGAUGUUGAGGUUC [Laar]”, for which the “apparent KD of K4 kissing-loop reporter” value is, setting by setting: (input ligand: FMN 200 uM) 243 nM; (input ligand: arginine 13.2 mM) 220 nM; (input ligand: none) 248 nM; under setting [1], 188 nM; under setting [2], 232 nM.

“AAGGUCACUACUACAGUGAUGUUGUGGGAGCAGGAUAUGCAGAAAUGCAGAAGGGCUCGCUCCAAGUGACCGAAUGAAACAUUCA [Omei KL FMN A SS A v1]”: the “apparent KD of K4 kissing-loop reporter” value is, setting by setting: (input ligand: FMN 200 uM) 1170 nM; (input ligand: arginine 13.2 mM) 876 nM; (input ligand: none) 839 nM; under setting [1], 1210 nM; under setting [2], 938 nM.

In the case of “AAGUCAUACAGAAGGAGCGUGUUUUAUAAUUUAUUUUCAUGAUCGAGUGAUGUUCGAUAUACACAGGUAGGUCGCUGUAUAAUAA [JR_SSArginiB_Sub007]”, the “apparent KD of K4 kissing-loop reporter” value by setting is: (input ligand: FMN 200 uM) 102 nM; (input ligand: arginine 13.2 mM) 146 nM; (input ligand: none) 121 nM; under setting [1], 146 nM; under setting [2], 103 nM.

Turning to “AAGUCAUAGGCAGGAUAUGCAUAGUAAUAAGGCCAUAUAUACGUAUAGAGUGAUGUUUUGUACCAGGCAGAAGGGCUACAUCAGU [FMN B Excl V7 (+3A)]”, the “apparent KD of K4 kissing-loop reporter” value amounted to 550 nM (input ligand: FMN 200 uM); 506 nM (input ligand: arginine 13.2 mM); 594 nM (input ligand: none); 643 nM under setting [1]; 470 nM under setting [2].

With “AAGUCAUAGGCAGGAUAUGCUUAGUAUUAAGGCCAUAUAUACGUAUAGAGUGAUGUUUUGUACCAGGCAGAAGGGCUACAUCAGU [FMN B Excl V6 (+A)]”, the “apparent KD of K4 kissing-loop reporter” value (input ligand: FMN 200 uM) worked out at 448 nM; the “apparent KD of K4 kissing-loop reporter” value (input ligand: arginine 13.2 mM) is 483 nM; the “apparent KD of K4 kissing-loop reporter” value (input ligand: none) was found to be 603 nM; the “apparent KD of K4 kissing-loop reporter” value under setting [1] worked out at 634 nM; the “apparent KD of K4 kissing-loop reporter” value under setting [2] was 536 nM.

On to “AAGUCAUAUAGAAGGAGCGUGUUUUUUAAUUUAUUUUCAUGAUCGAGUGAUGUUCGAUAUACACAGGUAGGUCGCUGUAUAAUAA [hbob_SS_Arginine_B_2t141]”, for which the “apparent KD of K4 kissing-loop reporter” value (input ligand: FMN 200 uM) is 126 nM; the “apparent KD of K4 kissing-loop reporter” value (input ligand: arginine 13.2 mM) amounted to 145 nM; the “apparent KD of K4 kissing-loop reporter” value (input ligand: none) is 127 nM; the “apparent KD of K4 kissing-loop reporter” value under setting [1] is 179 nM; the “apparent KD of K4 kissing-loop reporter” value under setting [2] is 112 nM.

Take “AAGUGAUGUUGUAGUGAUGUUGUGAUGUUGCAGGAUAUAUAGUGAUGUAGAAGGGUAUGUACUUAUUUGUUUUUUGAGUUAUGUU [zzazzrmullin]”: the “apparent KD of K4 kissing-loop reporter” value worked out at 65.9 nM (input ligand: FMN 200 uM); 28.5 nM (input ligand: arginine 13.2 mM); 53.1 nM (input ligand: none); 41 nM under setting [1]; 53.8 nM under setting [2].

With “AAGUGUCAUUAGACACACCGAUGUAUAAACUAGGAUAUGCUGAUAAGCAGAAGGAGUGAUGUUCCUUUCAUCAUCGGAAUUAAAU [#06 K4 FMN A Exclusion]”, the “apparent KD of K4 kissing-loop reporter” value (input ligand: FMN 200 uM) is 301 nM; the “apparent KD of K4 kissing-loop reporter” value (input ligand: arginine 13.2 mM) was 161 nM; the “apparent KD of K4 kissing-loop reporter” value (input ligand: none) stood at 160 nM; the “apparent KD of K4 kissing-loop reporter” value under setting [1] worked out at 175 nM; the “apparent KD of K4 kissing-loop reporter” value under setting [2] was determined as 144 nM.

Consider “AAUAAAAGAUGUUUAGGAAAGAAAAUGGAAGGAGCGUGCGAAAGCACAGGUAGGUCGCCAGUGAUGUUGGAACCUGAGCAUCAAA [#SwitchBubble 15 #K4Late]”, for which the “apparent KD of K4 kissing-loop reporter” value runs as follows: (input ligand: FMN 200 uM) 827 nM; (input ligand: arginine 13.2 mM) 479 nM; (input ligand: none) 699 nM; under setting [1], 677 nM; under setting [2], 436 nM.
